How the values were obtained:
mAb 198 [1] = assay: cell-based or functional assay
mAb 198 [2] = assay: competition ELISA: polypeptide preincubated with mAb 198, binding of mAb 198 to coated Torpedo AChR read
mAb 198 [3] = assay: competition ELISA: fragment preincubated with mAb 198, binding of mAb 198 to coated Torpedo AChR read
[4] = biological target: human muscle-type AChR on TE671 cells (human) (UniProt P02708); assay: cell-based or functional assay

Hα1-121 fused to glutathione S-transferase (GST) at the N-terminus (from UniProt P02708 21-141) (receptor)
protection of TE671 cells against AChR degradation induced by mAb 198 (residual α-BTX binding sites) (mAb 198 [1]): 100 µg/mL

Hα1-121+p3A fused to glutathione S-transferase (GST) at the N-terminus (receptor)
IC50 (mAb 198 [2]): 100 nM

Hα1-210+p3A fused to glutathione S-transferase (GST) at the N-terminus (from UniProt P08515 1-218) (receptor)
IC50 (mAb 198 [3]): 1300 nM | IC50 (mAb 198 [2]): 180 nM

mAb 198 (antibody)
residual AChR on TE671 cells (α-BTX binding sites) after 3 h incubation with 1 µg/ml mAb [4]: 41%

Reference: patent US20020081652A1
